Assay results as given in US8058228B2, “Leptin peptide antagonists” (Boston Biomedical Research Institute, priority 2004, dated 2011).

Molecular target: T1, OB-R (Homo sapiens, UniProt P48357)
T1 construct: After confirming via Western that the primary EEC and ESC and endometrial cell lines utilized herein had OB-R; endogenous in cells; host or cells: primary human EEC and ESC; Ishikawa (ECACC 9832301) and HES cell lines
T1 sequence (P48357 22-1165): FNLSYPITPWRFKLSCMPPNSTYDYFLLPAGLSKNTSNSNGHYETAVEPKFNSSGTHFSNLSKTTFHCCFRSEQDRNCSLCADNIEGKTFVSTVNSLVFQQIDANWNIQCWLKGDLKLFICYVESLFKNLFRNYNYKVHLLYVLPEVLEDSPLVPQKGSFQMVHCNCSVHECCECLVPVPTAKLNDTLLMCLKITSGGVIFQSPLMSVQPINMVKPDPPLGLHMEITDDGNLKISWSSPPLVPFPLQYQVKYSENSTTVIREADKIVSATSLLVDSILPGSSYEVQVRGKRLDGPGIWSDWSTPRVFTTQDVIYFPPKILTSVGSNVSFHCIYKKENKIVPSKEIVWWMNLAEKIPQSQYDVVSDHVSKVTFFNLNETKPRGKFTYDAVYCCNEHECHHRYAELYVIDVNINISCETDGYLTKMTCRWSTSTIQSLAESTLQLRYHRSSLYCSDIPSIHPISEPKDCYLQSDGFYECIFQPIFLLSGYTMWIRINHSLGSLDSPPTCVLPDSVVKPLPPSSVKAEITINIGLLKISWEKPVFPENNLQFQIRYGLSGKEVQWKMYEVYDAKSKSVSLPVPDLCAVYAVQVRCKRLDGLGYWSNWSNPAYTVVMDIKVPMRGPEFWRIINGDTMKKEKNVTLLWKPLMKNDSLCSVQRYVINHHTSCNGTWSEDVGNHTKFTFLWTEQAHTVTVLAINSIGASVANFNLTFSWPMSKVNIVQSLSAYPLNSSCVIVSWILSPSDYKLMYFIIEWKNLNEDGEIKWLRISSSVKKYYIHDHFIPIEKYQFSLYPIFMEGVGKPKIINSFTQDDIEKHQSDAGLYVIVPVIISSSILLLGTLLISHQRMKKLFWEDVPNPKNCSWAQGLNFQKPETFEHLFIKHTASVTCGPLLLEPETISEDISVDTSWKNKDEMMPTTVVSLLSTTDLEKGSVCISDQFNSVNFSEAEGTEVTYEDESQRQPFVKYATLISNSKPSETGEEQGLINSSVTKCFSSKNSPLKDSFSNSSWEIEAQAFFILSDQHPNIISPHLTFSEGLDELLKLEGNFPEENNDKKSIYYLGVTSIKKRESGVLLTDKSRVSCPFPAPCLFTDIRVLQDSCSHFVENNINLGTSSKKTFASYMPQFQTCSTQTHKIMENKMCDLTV
Experiment: p-STAT3 levels in human endometrial cells (Western blot)
Format: cell-based
Settings: for effect on leptin-induced increase of p-STAT3 levels: peptide 300 nM
Protocol: Primary human endometrial cells (ESC and EEC) were cultured for 5-9 days in DMEM-F12 medium containing 5% fetal bovine serum (FBS), 5 μg/ml insulin, 1% amphopthericin B, 100 μg/ml streptomycin and 100 U/ml penicillin until they were 80% confluent. Two types of endometrial epithelial cell lines, HES (originally derived from a benign proliferative endometrium) and Ishikawa (human endometrial epithelial adenocarcinoma, ECACC 9832301, Wiltshire, England) were cultured under the same conditions described above. The cells were washed twice with 100 mM phosphate saline buffer (PBS), pH 7.2 and cultured for additional 2 days in the same medium but without FBS (basal medium). Cells were washed as described before and cultured in basal medium containing leptin (0, 3, 10 or 62 nM) or IL-1β (0.6, 3 and 10 nM).
The anti-OB-R antibody (10 and 20 μg/ml) and LPA-2, a specific inhibitor of OB-R (3, 120, 300 nM or 30 μM) were used to assess whether leptin-induced effects were regulated primarily by the OB-R. Non-specific species-matched IgGs to the OB-R antibody and a scrambled version of LPA-2 (LPA-2Sc) served as negative controls (Gonzalez and Leavis, Endocrine 21: 185-195 (2003)). Inhibitors of IL-1R were used (monoclonal antibody anti-IL-1R tl and IL-1Ra) to assess whether leptin activated IL-1 induced signaling pathways or just activated similar components responsible for LIF/LIF-R expression. Treatment with the cytokine, inhibitor or the two combined was implemented for 5, 15, 30 and 60 min, and 24 and 48 h. The cells were prepared for Western blot analysis. The conditioned media was collected, lyophilized and stored at −80° C. until analysis for LIF, IL-1β and IL-1Ra by ELISA could be performed. Duplicate wells were run for each treatment and the experiments repeated at least three times with different cell preparations.
Endometrial cells were washed with ice-cold PBS and lysed by homogenization on ice with lysis buffer A [[…] Tris, pH 7.4, containing 137 nM NaCl, 2 mM EDTA, 10% glycerol, 50 mM β-glycerophosphate, 1% Nonidet P-40 and a mixture of proteases and phosphatase inhibitors composed of 100 μM antipain, 0.1 mg/ml trypsin inhibitor, protease inhibitor cocktail 1:50 (Sigma), 50 nM NaF, 2 mM phenyl-methylsulfonyl fluoride, and 2 mM sodium orthovanadate]. Cellular lysates were centrifuged at 2400 g at 4° C. for 10 min. For nuclear lysates the cells were scraped from the culture plates and homogenized with lysis buffer B (10 nM Tris, pH 7.4, 0.25 M sucrose, 0.1 mM EDTA containing the same mixture of protease and phosphatase inhibitors as buffer A). Protein concentrations were determined using the Bradford protein assay (BioRad Laboratories Inc., Hercules, Calif.).
30 μg of protein from nuclear or cellular lysates were incubated in ependorf tubes containing 0.5 μg of primary antibodies (anti-LIF-R, OB-R, STAT3 and p-STAT3 diluted in buffer A) for 2 h at 4° C. under constant stirring. The immuno-complexes were incubated with 20 μl of Protein G-Agarose (Amersham Pharmacia Biotech) diluted 1:1 with buffer A for a 2 additional hours under constant stirring. The beads were centrifuged for 1 min at 1000 g and washed with buffer A containing 0.5 M NaCl followed by a final wash with buffer A.
Cellular lysates and their immunoprecipitates containing 10-30 μg of protein plus Laemmli buffer (1:1) were incubated at 95° C. for 5 min. […]

Row | Substance | p-STAT3 level compared to non-treated control cells (Ishikawa cells, LPA-2 treatment) | effect on leptin-induced increase of p-STAT3 levels (Ishikawa cells, leptin 62 nM) | p-STAT3 levels over non-treated controls after leptin (Ishikawa cells, leptin 62 nM) | p-STAT3 levels after leptin (primary EEC, leptin 10 and 62 nM, 5 min, nuclear extracts)
1 | SRNVIQISNDLENLRDLLHVLAFSKS [LPA-2, 26 amino acid peptide, residues 70-95 of helix III of the human leptin molecule; leptin peptide antagonist] | decrease level of p-STAT3 | inhibited the leptin-induced increase |  | 
2 | VAEVLNRSDLIQRISFSLDLNNSKLH [LPA-2Sc, scrambled version of LPA-2, negative control, reference compound] |  | had no effect |  | 
3 | leptin: human recombinant leptin (R&D Systems), OB-R ligand used as stimulus |  |  | increased the levels of p-STAT3 | increase in the levels of p-STAT3
